Patent US20140271653A1

Key:
Assay in all cases: cell-based or functional assay
[1] = target: RSV-F of RSV subtype A strain Long (respiratory syncytial virus subtype A, strain Long) (UniProt P12568)
[2] = target: RSV-F of RSV subtype A strain A2 (1540) (respiratory syncytial virus subtype A, strain A2 (1540)) (UniProt P03420)
[3] = target: RSV-F of RSV subtype B strain 1400 (respiratory syncytial virus subtype B, strain 1400)
[4] = target: RSV-F of RSV subtype A clinical isolate A1997/12-35 (respiratory syncytial virus subtype A, clinical isolate A1997/12-35)
[5] = target: RSV-F of RSV subtype A clinical isolate A1998/3-2 (respiratory syncytial virus subtype A, clinical isolate A1998/3-2)
[6] = target: RSV-F of RSV subtype B strain 18537 (respiratory syncytial virus subtype B, strain 18537) (UniProt P13843)
[7] = target: RSV-F of RSV subtype A clinical isolate A2000/3-4 (respiratory syncytial virus subtype A, clinical isolate A2000/3-4)
[8] = target: RSV-F of RSV subtype B strain 9320 (respiratory syncytial virus subtype B, strain 9320)
[9] = target: RSV-F of RSV subtype A clinical isolate A1998/12-21 (respiratory syncytial virus subtype A, clinical isolate A1998/12-21)
[10] = target: RSV-F of RSV subtype A clinical isolate A2001/3-12 (respiratory syncytial virus subtype A, clinical isolate A2001/3-12)
[11] = target: RSV-F of RSV subtype B strain 1A2 (respiratory syncytial virus subtype B, strain 1A2)
[12] = target: RSV-F of RSV subtype A clinical isolate A2001/2-20 (respiratory syncytial virus subtype A, clinical isolate A2001/2-20)

Sequence of Control III (AM-22) (antibody) (VH): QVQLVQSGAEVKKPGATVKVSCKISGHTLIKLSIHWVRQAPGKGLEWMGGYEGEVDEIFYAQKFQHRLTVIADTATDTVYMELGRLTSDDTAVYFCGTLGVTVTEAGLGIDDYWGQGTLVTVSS
Sequence of Control III (AM-22) (antibody) (VL): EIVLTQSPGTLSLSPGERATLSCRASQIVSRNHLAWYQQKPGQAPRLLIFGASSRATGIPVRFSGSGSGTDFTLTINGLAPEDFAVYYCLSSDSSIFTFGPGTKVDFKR
Sequence of RSV-F of RSV subtype A strain A2 (1540) (respiratory syncytial virus subtype A, strain A2 (1540)) (P03420 26-574): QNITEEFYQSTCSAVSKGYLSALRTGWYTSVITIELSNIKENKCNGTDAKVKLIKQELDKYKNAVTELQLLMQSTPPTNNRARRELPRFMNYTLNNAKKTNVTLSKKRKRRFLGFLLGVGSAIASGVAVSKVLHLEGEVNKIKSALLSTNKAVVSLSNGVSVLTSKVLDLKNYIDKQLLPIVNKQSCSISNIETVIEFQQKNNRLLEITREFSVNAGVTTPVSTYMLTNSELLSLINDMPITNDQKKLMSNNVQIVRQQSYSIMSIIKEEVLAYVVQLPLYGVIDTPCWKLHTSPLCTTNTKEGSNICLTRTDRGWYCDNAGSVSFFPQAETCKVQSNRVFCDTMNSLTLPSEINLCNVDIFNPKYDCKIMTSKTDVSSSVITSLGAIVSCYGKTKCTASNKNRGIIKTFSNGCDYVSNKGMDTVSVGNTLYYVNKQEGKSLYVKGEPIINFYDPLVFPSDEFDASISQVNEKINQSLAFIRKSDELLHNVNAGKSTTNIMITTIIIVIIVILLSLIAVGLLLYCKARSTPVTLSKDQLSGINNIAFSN
Sequence of RSV-F of RSV subtype B strain 18537 (respiratory syncytial virus subtype B, strain 18537) (P13843 26-574): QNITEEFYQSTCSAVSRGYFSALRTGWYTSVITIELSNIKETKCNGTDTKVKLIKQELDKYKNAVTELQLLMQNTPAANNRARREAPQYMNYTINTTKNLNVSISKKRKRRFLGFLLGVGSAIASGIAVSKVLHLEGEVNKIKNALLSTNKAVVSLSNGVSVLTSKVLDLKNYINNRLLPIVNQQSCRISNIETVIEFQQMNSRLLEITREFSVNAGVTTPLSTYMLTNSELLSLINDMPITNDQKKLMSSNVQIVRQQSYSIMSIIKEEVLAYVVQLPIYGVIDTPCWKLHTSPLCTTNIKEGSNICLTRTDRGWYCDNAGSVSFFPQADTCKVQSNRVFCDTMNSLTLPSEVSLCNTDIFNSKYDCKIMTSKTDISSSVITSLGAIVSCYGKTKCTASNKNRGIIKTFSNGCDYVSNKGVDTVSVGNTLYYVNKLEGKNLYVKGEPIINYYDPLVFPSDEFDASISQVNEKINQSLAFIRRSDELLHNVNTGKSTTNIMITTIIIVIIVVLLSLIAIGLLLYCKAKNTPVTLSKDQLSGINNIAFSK
Sequence of RSV-F of RSV subtype A strain Long (respiratory syncytial virus subtype A, strain Long) (P12568 26-574): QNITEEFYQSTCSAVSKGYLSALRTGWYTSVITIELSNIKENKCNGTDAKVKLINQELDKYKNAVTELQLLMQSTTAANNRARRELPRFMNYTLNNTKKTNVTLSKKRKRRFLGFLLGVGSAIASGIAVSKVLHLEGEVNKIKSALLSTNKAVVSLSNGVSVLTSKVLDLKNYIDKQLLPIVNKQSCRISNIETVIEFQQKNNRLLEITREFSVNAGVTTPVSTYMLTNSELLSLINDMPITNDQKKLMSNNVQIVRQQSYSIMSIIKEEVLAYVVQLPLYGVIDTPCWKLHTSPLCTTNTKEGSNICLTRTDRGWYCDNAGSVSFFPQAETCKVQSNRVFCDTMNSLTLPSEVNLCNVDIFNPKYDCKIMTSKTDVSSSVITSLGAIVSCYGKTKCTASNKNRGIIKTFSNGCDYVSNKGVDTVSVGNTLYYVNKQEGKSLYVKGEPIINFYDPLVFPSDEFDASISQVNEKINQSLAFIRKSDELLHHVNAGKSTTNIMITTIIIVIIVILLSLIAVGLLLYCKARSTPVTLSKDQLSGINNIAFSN

Control III (AM-22) (antibody)
IC50 (pM), RSV micro-neutralization, A/Long [1]: 86 pM | IC50 (pM), RSV micro-neutralization, A/A2 [2]: 91 pM | IC50 (pM), RSV micro-neutralization, B/1400 [3]: 190 pM | IC50 (pM), RSV micro-neutralization, clinical isolate [4]: 20 pM | IC50 (pM), RSV micro-neutralization, clinical isolate [5]: 31 pM | IC50 (pM), RSV micro-neutralization, B/18537 [6]: 660 pM | IC50 (pM), RSV micro-neutralization, clinical isolate [7]: 55 pM | IC50 (pM), RSV micro-neutralization, B/9320 [8]: 2510 pM | IC50 (pM), RSV micro-neutralization, clinical isolate [9]: 43 pM | IC50 (pM), RSV micro-neutralization, clinical isolate [10]: 60 pM | IC50 (pM), RSV micro-neutralization, B/1A2 [11]: 580 pM | IC50 (pM), RSV micro-neutralization, clinical isolate [12]: 72 pM
